Data from patent US20020177126A1 (published 2002).
Where “and” joins values, the source holds several entries; their conditions need not be identical. Equal entries are not always repeated.

Tests used:
[1] = target: T1, F protein of RSV A/Long MARM B13 (respiratory syncytial virus, strain …, UniProt P12568 26-574); assay: IFA on MARM-infected HEp-2 cells
T1 construct: whole, on cells

[2] = target: T2, F protein of RSV A/Long MARM B14 (respiratory syncytial virus, strain …, UniProt P12568 26-574); assay: IFA on MARM-infected HEp-2 cells
T2 construct: whole, on cells

[3] = target: T3, F protein of RSV A/Long MARM B4 (respiratory syncytial virus, strain …, UniProt P12568 26-574); assay: IFA on MARM-infected HEp-2 cells
T3 construct: whole, on cells

[4] = target: T4, F protein of RSV A/Long MARM B1 (respiratory syncytial virus, strain …, UniProt P12568 26-574); assay: IFA on MARM-infected HEp-2 cells
T4 construct: whole, on cells

[5] = target: T5, F protein of RSV A/Long MARM B8 (respiratory syncytial virus, strain …, UniProt P12568 26-574); assay: IFA on MARM-infected HEp-2 cells
T5 construct: whole, on cells

[6] = target: T6, F protein of RSV A/Long MARM B7 (respiratory syncytial virus, strain …, UniProt P12568 26-574); assay: IFA on MARM-infected HEp-2 cells
T6 construct: whole, on cells

[7] = target: T7, F protein of RSV A/Long MARM B15 (respiratory syncytial virus, strain …, UniProt P12568 26-574); assay: IFA on MARM-infected HEp-2 cells
T7 construct: whole, on cells

[8] = target: T8, F protein of RSV A/Long MARM B3 (respiratory syncytial virus, strain …, UniProt P12568 26-574); assay: IFA on MARM-infected HEp-2 cells
T8 construct: whole, on cells

[9] = target: T9, F protein of RSV A/Long MARM B6 (respiratory syncytial virus, strain …, UniProt P12568 26-574); assay: IFA on MARM-infected HEp-2 cells
T9 construct: whole, on cells

[10] = target: T10, F protein of RSV A/Long MARM B10 (respiratory syncytial virus, strain …, UniProt P12568 26-574); assay: IFA on MARM-infected HEp-2 cells
T10 construct: whole, on cells

[11] = target: T11, F protein of RSV A/Long MARM B2 (respiratory syncytial virus, strain …, UniProt P12568 26-574); assay: IFA on MARM-infected HEp-2 cells
T11 construct: whole, on cells

[12] = target: F protein (RSV F glycoprotein immobilised on the BIAcore sensor chip) (respiratory syncytial virus (RSV), UniProt P03420 26-524); assay: BIAcore, immobilised F protein
[13] = target: T12, F protein of RSV A/Long MARM B9 (respiratory syncytial virus, strain …, UniProt P12568 26-574); assay: IFA on MARM-infected HEp-2 cells
T12 construct: whole, on cells

[14] = target: T13, F protein of MARM #13 (selected with A4B4 from MARM B9) (respiratory syncytial virus, strain …, UniProt P12568 26-574); assay: IFA on MARM-infected HEp-2 cells
T13 construct: whole, on cells

[15] = target: T14, F protein of RSV A/Long MARM #6 (selected with A4B4) (respiratory syncytial virus, strain …, UniProt P12568 26-574); assay: IFA on MARM-infected HEp-2 cells
T14 construct: whole, on cells

[16] = target: T15, F protein of RSV A/Long MARM #11 (selected with A4B4) (respiratory syncytial virus, strain …, UniProt P12568 26-574); assay: IFA on MARM-infected HEp-2 cells
T15 construct: whole, on cells

[17] = target: T16, F protein of RSV A/Long MARM #10 (selected with A4B4) (respiratory syncytial virus, strain …, UniProt P12568 26-574); assay: IFA on MARM-infected HEp-2 cells
T16 construct: whole, on cells

[18] = target: T17, F protein of RSV A/Long MARM #9 (selected with A4B4) (respiratory syncytial virus, strain …, UniProt P12568 26-574); assay: IFA on MARM-infected HEp-2 cells
T17 construct: whole, on cells

[19] = target: Bac-F (UniProt P03420 26-524); assay: BIAcore, Mab vs Bac-F, 1:1
[20] = target: T18, F protein of wild type RSV A/Long (respiratory syncytial virus, strain …, UniProt P12568 26-574); assay: cell-based or functional assay
[21] = target: T18, F protein of wild type RSV A/Long; assay: cell-based or functional assay; remark: listed apart in the source

B1: SYNAGIS® (antibody, V domains shown)
VH: QVTLRESGPALVKPTQTLTLTCTFSGFSLSTSGMSVGWIRQPPGKALEWLADIWWDDKKDYNPSLKSRLTISKDTSKNQVVLKVTNMDPADTATYYCARSMITNWYFDVWGAGTTVTVSS
VL: DIQMTQSPSTLSASVGDRVTITCKCQLSVGYMHWYQQKPGKAPKLLIYDTSKLASGVPSRFSGSGSGTEFTLTISSLQPDDFATYYCFQGSGYPFTFGGGTKLEIK
notes: also called SYNAGIS ®/SYNAGIS ® (HC/LC)
B1: no binding (tested: 250 ng/ml) [1]; no binding (tested: 250 ng/ml) [2]; no binding (tested: 250 ng/ml) [3]. B1: no binding (tested: 250 ng/ml) [4]; no binding (tested: 250 ng/ml) [5]; no binding (tested: 250 ng/ml) [6]. B1: no binding (tested: 250 ng/ml) [7]; no binding (tested: 250 ng/ml) [8]; no binding (tested: 250 ng/ml) [9]. For the same binder, the binding result [10] was “no binding (tested: 250 ng/ml)”, the binding result [11] was “no binding (tested: 250 ng/ml)” and the koff [12] was 0.000764 s⁻¹ and 0.000738 s⁻¹ and 0.000702 s⁻¹. For the same binder, the kon [12] was 204000 M⁻¹ s⁻¹ and 189000 M⁻¹ s⁻¹ and 218000 M⁻¹ s⁻¹, the binding result [13] was “no binding (tested: 250 ng/ml)” and the binding result [14] was “no binding (tested: 250 ng/ml)”. B1: no binding (tested: 250 ng/ml) [15]; no binding (tested: 250 ng/ml) [16]; no binding (tested: 250 ng/ml) [17]. For the same binder, the binding result [18] was “no binding (tested: 250 ng/ml)”, the Kd [19] was 3.9 nM and the koff [19] was 0.000515 s⁻¹. The kon [19] was 132000 M⁻¹ s⁻¹, the “number in parentheses after KD (fold vs SYNAGIS)” value [19] was 1 fold and the “Mean IC50 (Control), RSV microneutralization” value (shortened to “Mean IC50 (Control)”) [20] was 0.535 µg/mL. The “Mean IC50 (Curve), RSV microneutralization” value (“Mean IC50 (Curve)” for short) [20] was 0.453 µg/mL and the “EC50, RSV (Long) microneutralization” value [21] was 3.57 nM.

B2: P11d4 (Fab) (Fab, V domains shown)
VH: QVTLRESGPALVKPTQTLTLTCTFSGFSLSTPGMSVGWIRQPPGKALEWLADIWWDGKKHYNPSLKDRLTISKDTSKNQVVLKVTNMDPADTATYYCARDMIFNWYFDVWGQGTTVTVSS
VL: DIQMTQSPSTLSASVGDRVTITCSPSSRVGYMHWYQQKPGKAPKLLIYDTMRLASGVPSRFSGSGSGTEFTLTISSLQPDDFATYYCFQGSGYPFTFGGGTKVEIK
For B2, the koff [12] was 0.000717 s⁻¹, the kon [12] was 570000 M⁻¹ s⁻¹ and 572000 M⁻¹ s⁻¹ and the “Mean IC50 (Control)” value [20] was over 1 µg/mL. The “Mean IC50 (Curve)” value [20] was over 1 µg/mL and the “EC50, RSV (Long) microneutralization” value [21] was over 20 nM.

B3: A13c4 (Fab) (Fab, V domains shown)
VH: QVTLRESGPALVKPTQTLTLTCTFSGFSLSTAGMSVGWIRQPPGKALEWLADIWWDGKKSYNPSLKDRLTISKDTSKNQVVLKVTNMDPADTATYYCARDMIFNFYFDVWGQGTTVTVSS
VL: DIQMTQSPSTLSASVGDRVTITCSLSSRVGYMHWYQQKPGKAPKLLIYDTMYQSSGVPSRFSGSGSGTEFTLTISSLQPDDFATYYCFQGSGYPFTFGGGTKVEIK
B3 was tested, and the koff [12] was 0.00028 s⁻¹, the kon [12] was 781000 M⁻¹ s⁻¹ and 735000 M⁻¹ s⁻¹ and the “Fold Difference (Control IC50)” value [20] was 21 fold. The “Fold Difference (Curve IC50)” value [20] was 17 fold, the “Mean IC50 (Control)” value [20] was 0.0258 µg/mL and the “Mean IC50 (Curve)” value [20] was 0.0264 µg/mL. For the same binder, the “EC50, RSV (Long) microneutralization” value [21] was 0.52 nM.

B4: A12a6 (Fab) (Fab, V domains shown)
VH: QVTLRESGPALVKPTQTLTLTCTFSGFSLSTAGMSVGWIRQPPGKALEWLADIWWDGKKDYNPSLKDRLTISKDTSKNQVVLKVTNMDPADTATYYCARDMIFNFYFDVWGQGTTVTVSS
VL: DIQMTQSPSTLSASVGDRVTITCSASSRVGYMHWYQQKPGKAPKLLIYDTFKLSSGVPSRFSGSGSGTEFTLTISSLQPDDFATYYCFQGSGYPFTFGGGTKVEIK
For B4, the koff [12] was 0.00023 s⁻¹, the kon [12] was 743000 M⁻¹ s⁻¹ and the “Fold Difference (Control IC50)” value [20] was 17 fold. The “Fold Difference (Curve IC50)” value [20] was 16 fold, the “Mean IC50 (Control)” value [20] was 0.031 µg/mL and the “Mean IC50 (Curve)” value [20] was 0.0287 µg/mL. The “EC50, RSV (Long) microneutralization” value [21] was 0.62 nM.

B5: P12f4 (Fab) (Fab, V domains shown)
VH: QVTLRESGPALVKPTQTLTLTCTFSGFSLSTPGMSVGWIRQPPGKALEWLADIWWDGKKHYNPSLKDRLTISKDTSKNQVVLKVTNMDPADTATYYCARDMIFNFYFDVWGQGTTVTVSS
VL: DIQMTQSPSTLSASVGDRVTITCSLSSRVGYMHWYQQKPGKAPKLLIYDTRGLPSGVPSRFSGSGSGTEFTLTISSLQPDDFATYYCFQGSGYPFTFGGGTKVEIK
With B5 the koff [12] was 0.000299 s⁻¹, the kon [12] was 527000 M⁻¹ s⁻¹ and the “Fold Difference (Control IC50)” value [20] was 15 fold. For the same binder, the “Fold Difference (Curve IC50)” value [20] was 10 fold, the “Mean IC50 (Control)” value [20] was 0.0351 µg/mL and the “Mean IC50 (Curve)” value [20] was 0.0464 µg/mL. For the same binder, the “EC50, RSV (Long) microneutralization” value [21] was 0.7 nM.

B6: A4B4 (monoclonal antibody) (antibody, V domains shown)
VH: QVTLRESGPALVKPTQTLTLTCTFSGFSLSTAGMSVGWIRQPPGKALEWLADIWWDDKKHYNPSLKDRLTISKDTSKNQVVLKVTNMDPADTATYYCARDMIFNFYFDVWGQGTTVTVSS
VL: DIQMTQSPSTLSASVGDRVTITCSASSRVGYMHWYQQKPGKAPKLLIYDTFFLDSGVPSRFSGSGSGTEFTLTISSLQPDDFATYYCFQGSGYPFTFGGGTKLEIK
notes: also called A4B4/A4B4 (HC/LC)
B6: no binding (tested: 250 ng/ml) [14]; no binding (tested: 250 ng/ml) [15]; no binding (tested: 250 ng/ml) [16]. For the same binder, the binding result [17] was “no binding (tested: 250 ng/ml)”, the binding result [18] was “no binding (tested: 250 ng/ml)” and the Kd [19] was 0.02 nM. The koff [19] was 1.06e-05 s⁻¹, the kon [19] was 434000 M⁻¹ s⁻¹ and the “number in parentheses after KD (fold vs SYNAGIS)” value [19] was 195 fold. The “Fold Difference (Control IC50)” value [20] was 35 fold, the “Fold Difference (Curve IC50)” value [20] was 27 fold and the “Mean IC50 (Control)” value [20] was 0.0154 µg/mL. For the same binder, the “Mean IC50 (Curve)” value [20] was 0.0171 µg/mL.
